Data as given in patent US20250263462A1 (US Dept. of Health and Human Services, published 2025).

Key:
Test in all cases: cell-based or functional assay
[1] = target: KRAS G12V 10-mer peptide … (SEQ ID NO: 33) presented by HLA-A11 on pulsed cells (human, UniProt A*11:01)
[2] = target: T1, KRAS G12D 9-mer peptide KRAS8-16 … (SEQ ID NO: 34) presented by HLA-A11 on pulsed cells (human, UniProt A*11:01)
[3] = target: T2, WT KRAS 10-mer peptide (SEQ ID NO: 30) presented by HLA-A11 on pulsed cells (human, UniProt A*11:01)
[4] = target: KRAS G12D 9-mer peptide KRAS7-15 … (SEQ ID NO: 124) presented by HLA-A11 on pulsed cells (human, UniProt A*11:01)
[5] = target: T1, KRAS G12D 9-mer peptide KRAS8-16 … (SEQ …); remark: listed apart in the source
[6] = target: WT KRAS 9-mer peptide (SEQ ID NO: 31) presented by HLA-A11 on pulsed cells (human, UniProt A*11:01)
[7] = target: T2, WT KRAS 10-mer peptide (SEQ ID NO: 30) …; remark: listed apart in the source
[8] = target: HLA-A11 on COS7/A11 cells expressing the KRAS G12V minigene (23-mer SEQ ID NO: 120) (human, UniProt A*11:01)
[9] = target: HLA-A11 on COS7/A11 cells expressing the KRAS G12D minigene (23-mer SEQ ID NO: 119) (human, UniProt A*11:01)
[10] = target: HLA-A11 on COS7/A11 cells expressing the WT KRAS minigene (23-mer SEQ ID NO: 118) (human, UniProt A*11:01)

B1: TRAV12N-3*01/BV4*01 murine anti-KRAS G12D TCR (SEQ ID NOs: 11 and 12) (TCR, V domains shown)
V domain 1: GDSVTQTEGLVTLTEGLPVMLNCTYQTIYSNPFLFWYVQHLNESPRLLLKSFTDNKRTEHQGFHATLHKSSSSFHLQKSSAQLSDSALYYCALRGNAGAKLTFGGGTRLTVRP
V domain 2: ETAVFQTPNYHVTQVGNEVSFNCKQTLGHDTMYWYKQDSKKLLKIMFSYNNKQLIVNETVPRRFSPQSSDKAHLNLRIKSVEPEDSAVYLCASSSRDWSAETLYFGSGTRLTVLE
With B1 the “IFN-γ, PBL + COS7/A11 pulsed at 1 × 10^-6 M” value (“IFN-γ … at 1 × 10^-6 M” for short) [1] was 97 pg/mL, the “IFN-γ, PBL + COS7/A11 pulsed at 1 × 10^-7 M” value (shortened to “IFN-γ … at 1 × 10^-7 M”) [1] was 83 pg/mL and the “IFN-γ, PBL + COS7/A11 pulsed at 1 × 10^-8 M” value (“IFN-γ … at 1 × 10^-8 M” below) [1] was 86 pg/mL. The “IFN-γ, PBL + COS7/A11 pulsed at 1 × 10^-9 M” value (from here on “IFN-γ … at 1 × 10^-9 M”) [1] was 88 pg/mL, the “IFN-γ, PBL + COS7/A11 pulsed at 1 × 10^-10 M” value (shortened to “IFN-γ … at 1 × 10^-10 M”) [1] was 88 pg/mL and the “IFN-γ, PBL + COS7/A11 pulsed at 1 × 10^-11 M” value (“IFN-γ … at 1 × 10^-11 M” for short) [1] was 86 pg/mL. For the same binder, the “IFN-γ, PBL + COS7/A11 pulsed at 1 × 10^-12 M” value (“IFN-γ … at 1 × 10^-12 M” below) [1] was 96 pg/mL, the “IFN-γ, PBL + COS7/A11 pulsed at 1 × 10^-13 M” value (shortened to “IFN-γ … at 1 × 10^-13 M”) [1] was 97 pg/mL and the “IFN-γ … at 1 × 10^-6 M” value [2] was 136 pg/mL. The “IFN-γ … at 1 × 10^-7 M” value [2] was 95 pg/mL, the “IFN-γ … at 1 × 10^-8 M” value [2] was 99 pg/mL and the “IFN-γ … at 1 × 10^-9 M” value [2] was 90 pg/mL. For the same binder, the “IFN-γ … at 1 × 10^-10 M” value [2] was 85 pg/mL, the “IFN-γ … at 1 × 10^-11 M” value [2] was 85 pg/mL and the “IFN-γ … at 1 × 10^-12 M” value [2] was 94 pg/mL. For the same binder, the “IFN-γ … at 1 × 10^-13 M” value [2] was 115 pg/mL, the “IFN-γ … at 1 × 10^-6 M” value [3] was 78 pg/mL and the “IFN-γ … at 1 × 10^-7 M” value [3] was 88 pg/mL. The “IFN-γ … at 1 × 10^-8 M” value [3] was 102 pg/mL, the “IFN-γ … at 1 × 10^-9 M” value [3] was 99 pg/mL and the “IFN-γ … at 1 × 10^-10 M” value [3] was 95 pg/mL. The “IFN-γ … at 1 × 10^-11 M” value [3] was 86 pg/mL, the “IFN-γ … at 1 × 10^-12 M” value [3] was 102 pg/mL and the “IFN-γ … at 1 × 10^-13 M” value [3] was 98 pg/mL. For the same binder, the “IFN-γ … at 1 × 10^-6 M” value [4] was 87 pg/mL, the “IFN-γ … at 1 × 10^-7 M” value [4] was 91 pg/mL and the “IFN-γ … at 1 × 10^-8 M” value [4] was 72 pg/mL. For the same binder, the “IFN-γ … at 1 × 10^-9 M” value [4] was 90 pg/mL, the “IFN-γ … at 1 × 10^-10 M” value [4] was 90 pg/mL and the “IFN-γ … at 1 × 10^-11 M” value [4] was 95 pg/mL. For the same binder, the “IFN-γ … at 1 × 10^-12 M” value [4] was 83 pg/mL, the “IFN-γ … at 1 × 10^-13 M” value [4] was 112 pg/mL and the “IFN-γ, PBL + Cos7/A11 pulsed at 10^-6 M” value [5] was 125 pg/mL. For the same binder, the “IFN-γ, PBL + Cos7/A11 pulsed at 10^-7 M” value [5] was 86 pg/mL, the “IFN-γ, PBL + Cos7/A11 pulsed at 10^-8 M” value [5] was 90 pg/mL and the “IFN-γ, PBL + Cos7/A11 pulsed at 10^-9 M” value [5] was 92 pg/mL. For the same binder, the “IFN-γ, PBL + Cos7/A11 pulsed at 10^-10 M” value [5] was 95 pg/mL, the “IFN-γ, PBL + Cos7/A11 pulsed at 10^-11 M” value [5] was 88 pg/mL and the “IFN-γ, PBL + Cos7/A11 pulsed at 10^-12 M” value [5] was 91 pg/mL. For the same binder, the “IFN-γ, PBL + Cos7/A11 pulsed at 10^-13 M” value [5] was 84 pg/mL, the “IFN-γ, PBL + Cos7/A11 pulsed at 10^-6 M” value [6] was 90 pg/mL and the “IFN-γ, PBL + Cos7/A11 pulsed at 10^-7 M” value [6] was 96 pg/mL. For the same binder, the “IFN-γ, PBL + Cos7/A11 pulsed at 10^-8 M” value [6] was 95 pg/mL, the “IFN-γ, PBL + Cos7/A11 pulsed at 10^-9 M” value [6] was 88 pg/mL and the “IFN-γ, PBL + Cos7/A11 pulsed at 10^-10 M” value [6] was 95 pg/mL. The “IFN-γ, PBL + Cos7/A11 pulsed at 10^-11 M” value [6] was 84 pg/mL, the “IFN-γ, PBL + Cos7/A11 pulsed at 10^-12 M” value [6] was 105 pg/mL and the “IFN-γ, PBL + Cos7/A11 pulsed at 10^-13 M” value [6] was 103 pg/mL. For the same binder, the “IFN-γ, PBL + Cos7/A11 pulsed at 10^-6 M” value [7] was 82 pg/mL, the “IFN-γ, PBL + Cos7/A11 pulsed at 10^-7 M” value [7] was 77 pg/mL and the “IFN-γ, PBL + Cos7/A11 pulsed at 10^-8 M” value [7] was 85 pg/mL. For the same binder, the “IFN-γ, PBL + Cos7/A11 pulsed at 10^-9 M” value [7] was 102 pg/mL, the “IFN-γ, PBL + Cos7/A11 pulsed at 10^-10 M” value [7] was 88 pg/mL and the “IFN-γ, PBL + Cos7/A11 pulsed at 10^-11 M” value [7] was 81 pg/mL. The “IFN-γ, PBL + Cos7/A11 pulsed at 10^-12 M” value [7] was 76 pg/mL, the “IFN-γ, PBL + Cos7/A11 pulsed at 10^-13 M” value [7] was 92 pg/mL and the “IFN-γ, PBL + COS/A11 minigene transfectant” value [8] was 126 pg/mL. For the same binder, the “IFN-γ, PBL + COS/A11 minigene transfectant” value [9] was greater than 10000 pg/mL and the “IFN-γ, PBL + COS/A11 minigene transfectant” value [10] was 130 pg/mL.
